This note sets out measurements from article PMC11832770, “NADH-bound AIF activates the mitochondrial CHCHD4/MIA40 chaperone by a substrate-mimicry mechanism” (The EMBO Journal, 2025).

T1: CHCHD6, unfolded and reduced (human, UniProt Q9BRQ6 1-235)
T1 construct: CHCHD6 (MIC25), human, CX9C import substrate; construct from the DNASU Plasmid Repository inserted into pET30a; also called unfolded CHCHD6 substrate; MIC25; source: E. coli Rosetta2Gami(DE3), purified; unfolded by heating at 70 °C for 20 min with TCEP; not shown: GB1-6X-His, N-terminal, cleaved
T1 sequence (looked up): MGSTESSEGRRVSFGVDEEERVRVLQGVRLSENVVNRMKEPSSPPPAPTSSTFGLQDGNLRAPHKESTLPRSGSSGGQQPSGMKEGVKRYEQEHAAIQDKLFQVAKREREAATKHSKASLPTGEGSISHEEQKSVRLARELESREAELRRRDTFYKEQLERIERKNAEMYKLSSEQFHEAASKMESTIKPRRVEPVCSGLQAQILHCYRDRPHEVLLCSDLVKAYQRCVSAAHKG

T2: CHCHD4-SPS (C53S/C55S), full length (human, UniProt Q8N4Q1 1-142, C53S | C55S)
T2 sequence: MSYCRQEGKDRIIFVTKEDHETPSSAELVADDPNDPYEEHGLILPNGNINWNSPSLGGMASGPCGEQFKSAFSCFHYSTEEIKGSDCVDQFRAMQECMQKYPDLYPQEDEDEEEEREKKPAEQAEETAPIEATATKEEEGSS

T3: ΔN-CHCHD4-SPS (residues 40-142, C53S/C55S) (human, UniProt Q8N4Q1 40-142, C53S | C55S)
T3 sequence: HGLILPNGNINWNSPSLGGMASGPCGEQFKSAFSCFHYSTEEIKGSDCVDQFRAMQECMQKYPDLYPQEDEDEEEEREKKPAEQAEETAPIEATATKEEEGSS

T4: CHCHD4-AIA-A-SPS (I12A/F14A/H20A/C53S/C55S) (human, UniProt Q8N4Q1 1-142, I12A | F14A | H20A | C53S | C55S)
T4 sequence: T2 sequence with I12A, F14A, H20A

T5: CHCHD4-AIA-A-SPS (I12A/F14A/H20A/C53S/C55S) (human, UniProt Q8N4Q1 1-142, I12A | F14A | H20A | C53S | C55S, heat-unfolded and TCEP-reduced (free cysteines). The printed accession E5RGN4 is not among the candidates; the canonical human CHCHD10 entry Q8WYQ3 (used for the AlphaFold model) is taken instead. …)
T5 sequence: T2 sequence with I12A, F14A, H20A

T6: ΔN-CHCHD4-SPS (residues 40-142, C53S/C55S) (human, UniProt Q8N4Q1 40-142, C53S | C55S, heat-unfolded and TCEP-reduced (free cysteines). The printed accession E5RGN4 is not among the candidates; the canonical human CHCHD10 entry Q8WYQ3 (used for the AlphaFold model) is taken instead. …)
T6 sequence: T3 sequence

T7: CHCHD4-SPS (C53S/C55S), full length (human, UniProt Q8N4Q1 1-142, C53S | C55S, heat-unfolded and TCEP-reduced (free cysteines). The printed accession E5RGN4 is not among the candidates; the canonical human CHCHD10 entry Q8WYQ3 (used for the AlphaFold model) is taken instead. …)
T7 sequence: T2 sequence

B1: CHCHD4-SPS (C53S/C55S), full length (natural protein, human, UniProt Q8N4Q1 1-142, looked up)
chain: T2 sequence
notes: source: E. coli Rosetta2Gami(DE3), purified (Ni-NTA, PreScission cleavage, subtractive Ni-NTA, Superdex 75); not shown: GB1-6X-His, N-terminal, cleaved
B2: CHCHD4, wild type, full length (natural protein, human, UniProt Q8N4Q1 1-142, looked up)
chain: T2 sequence with S53C, S55C
notes: also called CHCHD4-WT; MIA40; source: E. coli Rosetta2Gami(DE3), purified (Ni-NTA, PreScission cleavage, subtractive Ni-NTA, Superdex 75); not shown: GB1-6X-His, N-terminal, cleaved
B3: Atto488-ΔN-CHCHD4-SPS, unfolded (domain or fragment, human, UniProt Q8N4Q1 40-142, looked up)
chain: T3 sequence
modifications: ATTO 488 (NHS ester) on the N-terminus
notes: also called unfolded CHCH substrate; unfolded fluorescent substrate; not shown: GB1-6X-His, N-terminal, cleaved
B4: CHCHD4-L28D (natural protein, human, UniProt Q8N4Q1 1-142, looked up)
chain: T2 sequence with L28D, S53C, S55C
notes: CHCHD4/MIA40, human, full length; source: E. coli Rosetta2Gami(DE3), purified (Ni-NTA, PreScission cleavage, subtractive Ni-NTA, Superdex 75); not shown: GB1-6X-His, N-terminal, cleaved
B5: Atto488-CHCHD4 (natural protein, human, UniProt Q8N4Q1 1-142, looked up)
chain: T2 sequence with S53C, S55C
modifications: ATTO 488 (NHS ester) on the N-terminus
notes: not shown: GB1-6X-His, N-terminal, cleaved
B6: CHCHD4-AIA (I12A/F14A) (natural protein, human, UniProt Q8N4Q1 1-142, looked up)
chain: T2 sequence with I12A, F14A, S53C, S55C
notes: CHCHD4/MIA40, human, full length; The methods print F12A/I14A for this mutant; the results print I12A/F14A; also called β-hairpin mutant; source: E. coli Rosetta2Gami(DE3), purified (Ni-NTA, PreScission cleavage, subtractive Ni-NTA, Superdex 75); not shown: GB1-6X-His, N-terminal, cleaved
B7: CHCHD4-AIA-A-SPS (I12A/F14A/H20A/C53S/C55S) (natural protein, human, UniProt Q8N4Q1 1-142, looked up)
chain: T2 sequence with I12A, F14A, H20A
notes: as for B4
B8: ΔN-CHCHD4-SPS (residues 40-142, C53S/C55S) (domain or fragment, human, UniProt Q8N4Q1 40-142, looked up)
chain: T3 sequence
notes: Folded, as titrant in ITC and in analytical SEC; also called ΔN-SPS; source: E. coli Rosetta2Gami(DE3), purified (Ni-NTA, PreScission cleavage, subtractive Ni-NTA, Superdex 75); not shown: GB1-6X-His, N-terminal, cleaved
B9: ΔN-CHCHD4 (residues 40-142) (domain or fragment, human, UniProt Q8N4Q1 40-142, looked up)
chain: T3 sequence with S14C, S16C
notes: also called N-terminal truncation mutant; source: E. coli Rosetta2Gami(DE3), purified (Ni-NTA, PreScission cleavage, subtractive Ni-NTA, Superdex 75); not shown: GB1-6X-His, N-terminal, cleaved
B10: CHCHD4-N45 (residues 1-45) (domain or fragment, human, UniProt Q8N4Q1 1-45, looked up)
chain: MSYCRQEGKDRIIFVTKEDHETPSSAELVADDPNDPYEEHGLILP
notes: In the crystal structure (PDB 8VGY) the same residues 1-45 stood linked to the C-terminus of AIF(104-613)-W196A; also called CHCHD4(1-45); source: E. coli Rosetta2Gami(DE3), purified (Ni-NTA, PreScission cleavage, subtractive Ni-NTA, Superdex 75); not shown: GB1-6X-His, N-terminal, cleaved
B11: CHCHD6, unfolded and reduced (natural protein)
chain: T1 sequence (looked up)
B12: CHCHD10, unfolded and reduced (natural protein)
chain: MPRGSRSAASRPASRPAAPSAHPPAHPPPSAAAPAPAPSGQPGLMAQMATTAAGVAVGSAVGHVMGSALTGAFSGGSSEPSQPAVQQAPTPAAPQPLQMGPCAYEIRQFLDCSTTQSDLSLCEGFSEALKQCKYYHGLSSLP

Data set [1] deals with both import substrates. Briefly: ITC; 700-750 µM CPC-inactivated CHCHD4 constructs titrated into 50 µM unfolded substrate; 25 mM HEPES pH 7.5, 150 mM NaCl, 1 mM TCEP; 25 °C. (ITC needs no label: the signal is the heat of the interaction.)
Data set [2] deals with T8, Atto488-AIF(78-613)/NADH (human, UniProt O95831 78-613, ATTO 488 (NHS ester) on the N-terminus).
T8 construct: Apoptosis-inducing factor (AIF), human, residues 78-613; also called Atto488-AIF-NADH; Atto488-AIF/NADH
Briefly: MST; CHCHD4 constructs titrated (1.8 nM–15 or 30 µM) into 100 nM Atto488-AIF(78-613) with unlabeled AIF and NADH (pre-formed charge-transfer complex); 25 mM HEPES pH 7.5, 150 mM NaCl, 0.01% Tween-20, 5 mM TCEP; 25 °C; first block of Table 1 (Fig. 1B). Conditions: both partners purified.

Data set [3] deals with T8, Atto488-AIF(78-613)/NADH. Kind of data set: MST; CHCHD4 interface mutants titrated (1.8 nM–15 or 30 µM) into 100 nM Atto488-AIF(78-613) with unlabeled AIF and NADH; same buffer, 25 °C; third block of Table 1 (Fig. 2A), fitted with a Hill coefficient. The following applies: both partners purified.
Data set [4] has as its target B1. Kind of data set: MST; CHCHD4-SPS titrated (15 nM–30 µM) into 100 nM unfolded Atto488-ΔN-CHCHD4-SPS in the presence of AIF(78-613) and NADH (2x stock 30 µM AIF/300 µM NADH); 25 mM HEPES pH 7.5, 150 mM NaCl, 0.01% Tween-20, 5 mM TCEP; 25 °C; a sample with added CHCHD4-N45 showed decreased binding. The following applies: both partners purified.
Data set [5] concerns the target T9, AIF(78-613), wild type (human, UniProt O95831 78-613).
T9 construct: Apoptosis-inducing factor (AIF), human, residues 78-613, lacking the inner mitochondrial membrane tether; Construct from Brosey et al 2016; also called Apoptosis-inducing factor; AIF + NADH; source: E. coli Rosetta2(DE3), purified (Ni-NTA, PreScission cleavage, subtractive Ni-NTA, Superdex 200)
Briefly: MST; wild-type AIF titrated (1.8 nM–30 µM) into 100 nM Atto488-CHCHD4 with 300 µM NADH; 25 mM HEPES pH 7.5, 150 mM NaCl, 0.01% Tween-20, 5 mM TCEP; 25 °C. Conditions: both partners purified.

Data set [6] deals with T10, AIF-W196A (human, UniProt O95831 78-613, W196A).
T10 construct: Apoptosis-inducing factor (AIF), human, allostery mutant lacking the inner mitochondrial membrane tether; limits read as those of the wild type, 78-613; source: E. coli Rosetta2(DE3), purified (Ni-NTA, PreScission cleavage, subtractive Ni-NTA, Superdex 200)
Briefly: MST; AIF allostery mutants titrated (1.8 nM–30 µM) into 100 nM Atto488-CHCHD4 without NADH; 25 mM HEPES pH 7.5, 150 mM NaCl, 0.01% Tween-20, 5 mM TCEP; 25 °C. Conditions: both partners purified.

The target in data set [7] is T11, AIF-R529A (human, UniProt O95831 78-613, R529A).
T11 construct: Apoptosis-inducing factor (AIF), human, allostery mutant lacking the inner mitochondrial membrane tether; limits read as those of the wild type, 78-613; source: E. coli Rosetta2(DE3), purified (Ni-NTA, PreScission cleavage, subtractive Ni-NTA, Superdex 200)
The description is as above. The following applies: both partners purified.

Data set [8] has as its target T1, CHCHD6, unfolded and reduced. Briefly: ITC; 700-750 µM CPC-inactivated CHCHD4 constructs titrated into 50 µM unfolded substrate; 25 mM HEPES pH 7.5, 150 mM NaCl, 1 mM TCEP; 25 °C. The following applies: both partners purified.
Data set [9] concerns the molecule itself. Kind of data set: SEC; Superdex 75 10/300, 25 mM HEPES pH 7.5, 150 mM NaCl, without reducing agent (also ± 5 mM βME and after 0-10 mM TCEP); 200 µM samples; monomer against disulfide-mediated dimer. For orientation: Size exclusion chromatography separates by hydrodynamic size, large species first.
In data set [10] the target is T12, AIF(104-613)-W196A (human, UniProt O95831 104-613, W196A).
T12 construct: Apoptosis-inducing factor (AIF), human, residues 104-613; Stands only for the AIF half of the crystallised chimera, so that the AIF-CHCHD4 contact can be written as a pair; also called dimer-permissive AIF (104-613) W196A mutant; source: E. coli Rosetta2(DE3), purified, as the AIF part of the chimera m17
Kind of data set: crystal structure; AIF(104-613)-W196A-CHCHD4(1-45) chimera, hanging drop, 0.1 M HEPES pH 8, 0.1 M NaCl, 18% PEG3350; CHCHD4 N45 linked to the C-terminus of AIF by …; AIF dimer with N45 resolved on both monomers. Conditions: both partners purified.

For data set [11], the target named is T2, CHCHD4-SPS (C53S/C55S), full length. Briefly: ITC.
The target of data set [12] is T3, ΔN-CHCHD4-SPS (residues 40-142, …). Briefly: ITC.
The target in data set [13] is T4, CHCHD4-AIA-A-SPS …. Briefly: ITC.
Data set [14] addresses T5, CHCHD4-AIA-A-SPS …. Briefly: ITC.
The target of data set [15] is T6, ΔN-CHCHD4-SPS (residues 40-142, …). Briefly: ITC.
The target of data set [16] is T7, CHCHD4-SPS (C53S/C55S), full length. Briefly: ITC.

Where a chain is given by its changes, count along the chain named. Numbers in names are those of the source.

T8 sequence (O95831 78-613): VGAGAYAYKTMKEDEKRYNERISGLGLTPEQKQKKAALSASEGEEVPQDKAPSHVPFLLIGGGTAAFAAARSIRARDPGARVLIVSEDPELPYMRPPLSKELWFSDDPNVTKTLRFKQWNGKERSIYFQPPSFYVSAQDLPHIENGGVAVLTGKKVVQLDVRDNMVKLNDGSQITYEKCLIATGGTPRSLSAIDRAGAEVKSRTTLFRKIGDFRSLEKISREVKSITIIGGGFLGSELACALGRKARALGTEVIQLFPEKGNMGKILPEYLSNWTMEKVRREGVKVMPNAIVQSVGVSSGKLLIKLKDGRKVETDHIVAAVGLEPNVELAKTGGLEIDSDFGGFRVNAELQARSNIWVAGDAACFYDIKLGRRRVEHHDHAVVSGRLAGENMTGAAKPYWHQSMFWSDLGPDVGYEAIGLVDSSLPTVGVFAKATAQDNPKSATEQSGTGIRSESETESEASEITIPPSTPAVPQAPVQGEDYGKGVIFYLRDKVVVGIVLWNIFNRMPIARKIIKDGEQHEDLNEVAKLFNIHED
T12 sequence (O95831 104-613 W196A): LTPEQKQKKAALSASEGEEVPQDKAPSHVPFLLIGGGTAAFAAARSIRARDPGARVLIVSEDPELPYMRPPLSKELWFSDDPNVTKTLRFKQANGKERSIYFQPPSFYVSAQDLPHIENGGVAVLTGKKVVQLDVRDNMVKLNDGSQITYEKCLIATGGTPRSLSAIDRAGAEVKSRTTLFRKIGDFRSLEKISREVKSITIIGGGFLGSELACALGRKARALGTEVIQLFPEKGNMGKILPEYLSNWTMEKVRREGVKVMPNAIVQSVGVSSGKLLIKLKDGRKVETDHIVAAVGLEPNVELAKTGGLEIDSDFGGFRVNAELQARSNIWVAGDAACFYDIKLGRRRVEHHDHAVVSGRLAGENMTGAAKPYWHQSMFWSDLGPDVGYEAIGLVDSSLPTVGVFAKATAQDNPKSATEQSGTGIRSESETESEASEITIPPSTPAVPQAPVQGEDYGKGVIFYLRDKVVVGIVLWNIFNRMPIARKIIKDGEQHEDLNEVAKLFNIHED

In the case of B1, the Kd in data set [1] was 18 to 40 µM; in data set [2], 230 nM.

For B2, the Kd in data set [3] stood at 180 nM; in data set [2], 580 nM.

On to B3, for which the binding result in data set [4] is reported as “binds”.

As for B4, in data set [3], the Kd is 240 nM.

Regarding B5, the figures for the Kd in data set [5], in data set [6] and in [7] were 340 nM, 2200 nM and 2500 nM, respectively.

On to B6, for which binding in data set [3] was characterised by a dissociation constant (Kd) of 3000 nM.

Consider B7, for which, in data set [8], the binding result is “binds”.

Consider B8, for which, in data set [8], the binding result is given as “binds”.

B9: the binding result in data set [9] is “binds”.

Regarding B10, the binding result in data set [10] was “binds”. Besides, binding in [2] was put at a Kd of 630 nM.

Turning to B11, the Kd was found to be 26.5 µM in data set [11], 14.9 µM in data set [12] and 8.3 µM in data set [13].

Take B12: the values for the Kd in data set [14], in data set [15] and in data set [16] were 4.5 µM, 6.4 µM and 20.4 µM, respectively.

As a reminder, the Kd is the concentration at which binding is half-saturated. A high value points to weaker binding.
